Kd data for 1 substance are collected here from article PMC1635724.

The target in the assay is 6His-PfJ (4.1R binding region of Plasmodium falciparum erythrocyte binding antigen-181, aa 945-1097) (P. falciparum) (UniProt Q8I2B4). The assay is described as follows: pull-down; ~700 ng 6His-PfJ coupled to His-Select magnetic beads, GST-4.1R domain (150 ng to 2 μg; heat denatured protein as control) added for 1 hr at room temperature, rinsed with TBS, eluted with 1% SDS, SDS-PAGE with scanning densitometry; Kd a rough estimate from linear transformations of three curves.

For “GST-10 kDa domain of human erythrocyte protein 4.1 (4.1R) (domain or fragment)”, the Kd (usually the concentration at which binding is half-saturated) is 745 nM.
